Source: patent publication US20150307599A1 (GARVAN INSTITUTE OF MEDICAL RESEARCH, published 2015)

Assays:
NPY (mouse NPY, Phoenix) = molecular target: T1, NPY (mouse NPY, Phoenix) (mouse, C-terminal amide (-NH2)); test: BLI (Octet RED96), biotinylated MAb on SA sensors, peptide in solution
T1 construct: 36-residue whole peptide bought from Phoenix Peptides; also called mNPY; neuropeptide Y
Method: (§1) Affinity of MAb to peptides NPY, mPYY, hPYY, mPP and hPP were measured using an OCTET RED96 system with Octet SA sensors (ForteBio). Briefly, black 96-well plates were prepared with columns containing 200 μL/well of all reagents required for determination of affinity. In general, Octet SA sensors were first placed in wells containing Octet running buffer for 60 seconds to establish a baseline. Sensors were then transferred to wells containing 50 μg/mL biotinylated 5E12-B7 for 480 seconds to load the SA coated tips. Sensors were then regenerated by 3×5 second incubations in Regeneration Buffer (10 mM Glycine, pH 2) followed each time by a 5 second incubation in Octet running buffer. Sensors were then placed in fresh running buffer for 60 seconds to establish a baseline. Association was then measured by incubation the sensors for 10 min in 8 wells containing a serial dilution of peptide (0, 0.33 to 243 nM for NPY and PYY peptides, 0, 9 to 6560 nM for PP peptides). The sensors were then transferred to wells containing Octet running buffer for 15 min to measure dissociation of the peptides. The regeneration step was repeated before measurement of association/dissociation with a different peptide. All peptide measurements were performed in duplicate. The kd, kₐ and KD were determined for each peptide using the accompanying Octet software (Bioforte).
(§2) Affinity parameters of MAb 5E12-B7 were measured against peptides NPY, mPYY, hPYY, mPP and hPP using an Octet Red system (ForteBio). Streptavadin sensors were loaded with biotinylated MAb 5E12-B7. Association and dissociation rates were measured by incubation of the sensors in wells containing serial dilutions of the peptides, followed by incubation in assay buffer.

human PYY (Phoenix) = molecular target: T2, human PYY (Phoenix) (human, C-terminal amide (-NH2)); test: as above
T2 construct: 36-residue whole peptide; also called hPYY
Method: as §1, §2

T2 sequence (peptide, as listed by the source): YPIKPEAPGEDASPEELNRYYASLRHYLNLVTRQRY

Kd (NPY (mouse NPY, Phoenix)): 4.7 nM
koff (NPY (mouse NPY, Phoenix)): 0.000429 s⁻¹
kon (NPY (mouse NPY, Phoenix)): 92600 M⁻¹ s⁻¹
Kd (human PYY (Phoenix)): 2.17 nM
koff (human PYY (Phoenix)): 0.000385 s⁻¹
kon (human PYY (Phoenix)): 179000 M⁻¹ s⁻¹
B1: MAb 5E12-B7 (antibody, V domains shown)
VH: QVQLQHPGTEVVKPGASVKLSCKASGYTFTNYWMHWVKQRPGQGLEWIGNIDPSNGGTNYNEKFKSKATLTVDKSSSTAYMQLSSLTSEDSAVYYCASFAYWGQGTLVTVSA
VL: DIQMTQSPASLSASVGETVTITCRASGNIHNYLAWYQQKQGKSPQLLVYNAKTLADGVPSRFSGSGSGTQYSLKISSLRPEDFGSYYCQHFWSPPFTFGSGTKLEIK
notes: Biotinylated for the Biacore and Octet assays; also called PYY/NPY antibody (5E12); anti-NPY/PYY antibody 5E12
